Data taken from patent publication US20100003195A1 (published 2010).
One block for each binder: values may come before it. Bridge positions count the residues as written; N and C are the ends. Primed or numbered codes have the meaning given here. Ends that are not written are not given here. I, II: the chains in the order shown. * marks the point of attachment. ivDde′ = (4,4-dimethyl-2,6-dioxocyclohex-1-ylidene)-3-methylbutyl protecting group, CC(C)CC(=C1C(=O)CC(C)(C)CC1=O)*

Key:
[1] = target: T1, KDR on HUVECs (human, UniProt P35968 20-1356); assay: cell-based or functional assay
T1 sequence (P35968 20-1356): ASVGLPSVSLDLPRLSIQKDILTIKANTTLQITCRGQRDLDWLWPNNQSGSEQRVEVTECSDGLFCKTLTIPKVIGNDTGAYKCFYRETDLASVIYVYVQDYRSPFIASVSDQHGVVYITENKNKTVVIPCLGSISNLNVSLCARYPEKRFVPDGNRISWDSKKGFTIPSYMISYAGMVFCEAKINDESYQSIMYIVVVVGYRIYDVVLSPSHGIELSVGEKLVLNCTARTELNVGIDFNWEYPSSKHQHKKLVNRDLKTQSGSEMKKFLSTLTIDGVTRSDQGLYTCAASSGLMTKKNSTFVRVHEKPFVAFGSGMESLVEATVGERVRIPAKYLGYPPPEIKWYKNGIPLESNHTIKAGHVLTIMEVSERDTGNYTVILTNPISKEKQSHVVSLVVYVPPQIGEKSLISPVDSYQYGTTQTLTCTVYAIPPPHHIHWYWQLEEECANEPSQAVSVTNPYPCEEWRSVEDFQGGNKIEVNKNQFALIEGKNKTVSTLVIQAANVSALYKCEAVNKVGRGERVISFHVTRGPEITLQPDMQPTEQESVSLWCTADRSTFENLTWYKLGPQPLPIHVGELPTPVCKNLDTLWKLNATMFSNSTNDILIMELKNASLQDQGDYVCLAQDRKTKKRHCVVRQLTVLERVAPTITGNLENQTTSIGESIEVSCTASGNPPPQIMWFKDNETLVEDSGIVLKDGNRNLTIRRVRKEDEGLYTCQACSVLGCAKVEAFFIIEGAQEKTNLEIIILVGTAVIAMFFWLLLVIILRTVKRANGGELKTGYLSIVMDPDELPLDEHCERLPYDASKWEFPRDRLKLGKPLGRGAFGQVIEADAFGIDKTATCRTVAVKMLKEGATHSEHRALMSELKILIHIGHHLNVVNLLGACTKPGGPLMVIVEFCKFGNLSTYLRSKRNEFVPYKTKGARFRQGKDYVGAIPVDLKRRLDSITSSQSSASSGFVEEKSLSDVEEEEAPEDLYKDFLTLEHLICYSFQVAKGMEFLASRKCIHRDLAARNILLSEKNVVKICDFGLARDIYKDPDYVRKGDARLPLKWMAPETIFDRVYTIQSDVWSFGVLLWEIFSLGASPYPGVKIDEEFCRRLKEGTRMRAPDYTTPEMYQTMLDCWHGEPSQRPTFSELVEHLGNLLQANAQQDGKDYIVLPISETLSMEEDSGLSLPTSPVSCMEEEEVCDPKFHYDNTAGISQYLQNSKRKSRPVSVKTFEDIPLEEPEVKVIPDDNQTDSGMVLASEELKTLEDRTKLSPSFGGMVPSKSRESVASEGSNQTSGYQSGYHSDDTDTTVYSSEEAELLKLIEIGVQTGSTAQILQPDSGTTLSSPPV

[2] = target: T2, KDR on KDR-transfected 293H cells (human, UniProt P35968 20-1356); assay: competitor 125I-VEGF (300 pM), KDR-transfected 293H cells, peptide 30 µM
T2 construct: whole, on cells; also called KDR-expressing cells; KDR-transfected cells
T2 sequence (P35968 20-1356): as above

[3] = target: T2, KDR on KDR-transfected 293H cells; assay: competitor 125I-VEGF (300 pM), KDR-transfected 293H cells, peptide 0.3 µM
[4] = target: T3, human KDR-Fc chimeric fusion (R&D Systems #357-KD-05) (human, UniProt P35968 20-764); assay: BIAcore steady state, KD1, KDR-Fc at 1600 RU
T3 construct: bought; also called KDR Fc fusion
T3 sequence (P35968 20-764, change not shown): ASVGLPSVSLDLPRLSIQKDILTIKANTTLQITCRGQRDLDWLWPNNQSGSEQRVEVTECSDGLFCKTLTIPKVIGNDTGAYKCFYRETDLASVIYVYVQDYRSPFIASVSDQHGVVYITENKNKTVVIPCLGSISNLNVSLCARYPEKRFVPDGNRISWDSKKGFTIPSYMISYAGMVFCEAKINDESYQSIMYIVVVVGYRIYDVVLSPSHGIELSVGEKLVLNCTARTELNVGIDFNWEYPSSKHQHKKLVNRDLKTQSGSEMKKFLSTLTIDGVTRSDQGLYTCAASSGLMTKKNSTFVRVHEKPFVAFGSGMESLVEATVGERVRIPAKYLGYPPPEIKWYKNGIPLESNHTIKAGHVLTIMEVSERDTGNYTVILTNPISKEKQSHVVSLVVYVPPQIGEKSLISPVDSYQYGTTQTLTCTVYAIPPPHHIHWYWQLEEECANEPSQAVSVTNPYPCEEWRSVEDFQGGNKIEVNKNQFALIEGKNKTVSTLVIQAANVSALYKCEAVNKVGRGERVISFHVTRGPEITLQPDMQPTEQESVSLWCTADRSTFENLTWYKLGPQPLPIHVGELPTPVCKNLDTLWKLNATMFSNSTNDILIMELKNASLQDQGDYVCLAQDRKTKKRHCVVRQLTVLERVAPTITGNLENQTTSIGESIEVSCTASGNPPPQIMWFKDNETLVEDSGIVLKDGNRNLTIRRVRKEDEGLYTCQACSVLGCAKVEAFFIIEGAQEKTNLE
Procedure: (§1) All samples were injected in duplicate. […] Following a 10 minute dissociation, any remaining peptide was stripped from the KDR surface with a quickinject of 50 mM NaOH+1 M NaCl for 12 s at 75 μL/min. Sensorgrams were analyzed using BIAevaluation software 3.1 and a hyperbolic double rectangular regression equation in SigmaPlot 6.0.

[5] = target: T3, human KDR-Fc chimeric fusion (R&D …); assay: BIAcore steady state, KD1, KDR-Fc at 3000 RU
Procedure: as §1

[6] = target: T3, human KDR-Fc chimeric fusion (R&D …); assay: BIAcore steady state, KD1, KDR-Fc at 6000 RU
Procedure: as §1

[7] = target: T3, human KDR-Fc chimeric fusion (R&D …); assay: BIAcore steady state, KDAV, KDR-Fc at 1600 RU
Procedure: as §1

[8] = target: T3, human KDR-Fc chimeric fusion (R&D …); assay: BIAcore steady state, KDAV, KDR-Fc at 3000 RU
Procedure: as §1

[9] = target: T3, human KDR-Fc chimeric fusion (R&D …); assay: BIAcore steady state, KDAV, KDR-Fc at 6000 RU
Procedure: as §1

[10] = target: T3, human KDR-Fc chimeric fusion (R&D …); assay: BIAcore steady state at the higher immobilization densities
Procedure: as §1

[11] = target: T1, KDR on HUVECs; assay: cell-based or functional assay; remark: listed apart in the source
[12] = target: T2, KDR on KDR-transfected 293H cells; assay: radioligand binding, 1-4 µCi/mL, KDR- vs mock-transfected 293H cells
[13] = target: T2, KDR on KDR-transfected 293H cells; assay: Tc-labeled dimer on KDR- vs mock-transfected 293H cells

- IC50, VEGF-induced HUVEC migration [1]: ~12.5 nM
- Kd [4]: 46 nM
- Kd [5]: 25.5 nM
- Kd [6]: 17 nM
- Kd [7]: 1.5 nM
- Kd [8]: 0.665 nM
- Kd [9]: 0.662 nM
- Kd [10]: ~0.6 nM
B2: dimer 6 (D6) (peptide)
peptide 1: GDSRVCWEDSWGGEVCFRYDPGGGK
peptide 2: AGPTWCEDDWYYCWLFGTGGGK
modifications: disulfide I:6-I:16, II:6-II:13 (inferred); also: heterodimer made with glutaric acid bis-NHS ester
notes: heterodimer made with glutaric acid bis-NHS ester

- IC50, VEGF-induced HUVEC migration [1]: ~250 nM
B5: dimer 17 (D17) (peptide)
peptide 1: AQDWYYDEILGRGGRGGRGGK
peptide 2: VCWEDSWGGEVCFRYDPGGGK
modifications: not fully specified; N-acetyl; C-terminal Lys(JJ-Glut) amide; N-acetyl; J spacer within the chain

- IC50, VEGF-induced HUVEC migration [1]: 5 nM
B10: dimer 25 (D25) (peptide)
peptide 1: Ac-AGPTWCEDDWYYCWLFGTGGGK-NH2
peptide 2: Ac-GDSRVCWEDSWGGEVCFRYDPGGGK-NH2
modifications: disulfide I:6-I:13, II:6-II:16 (inferred); not fully specified (bridges); also: dimer joined by JJ-Glut-Lys linker

- binding result [13]: no binding (tested: up to 10 µCi/mL)
B13: Tc-labeled D18 (scrambled derivative of D10) (peptide)
peptide 1: Ac-APGTWCDYDWEYCWLGTFGGGK-NH2
peptide 2: Ac-GVDFRCEWSDWGEVGCRSPDYGGGK-NH2
modifications: disulfide I:6-I:13, II:6-II:16 (inferred); not fully specified (some residues, bridges); also: 99mTc chelated by PnAO6, J not defined
notes: control; also called dimer 18

The next lines start with the binder.

B1: SEQ ID NO:277 (peptide)
peptide: AGPTWCEDDWYYCWLFGTGGGK
modifications: N-acetyl; C-terminal amide; fluorescein on C-terminal Lys in FP and in Table 15
- IC50, receptor activation assay [1]: 100 nM
- % inhibition of 125I-labeled VEGF binding [2]: 104%
- % inhibition of 125I-labeled VEGF binding [3]: 81%

B3: SEQ ID NO:366 having a blocked K (peptide)
peptide: Ac-GDWWECK(ivDde′)REEYRNTTWCAWADPGGGK-NH2
modifications: disulfide 6-17 (inferred)
- VEGF-induced KDR phosphorylation, HUVEC immunoblot [11]: ≥ 50 % inhibition at 10 µM

B4: SEQ ID NO:301 (peptide)
peptide: Ac-GDPDTCTMWGDSGRWYCFPADPGGGK-NH2
modifications: disulfide 6-17 (inferred); also: fluorescein on C-terminal Lys in FP only
- VEGF-induced KDR phosphorylation, HUVEC immunoblot [11]: ≥ 50 % inhibition at 10 µM

B6: SEQ ID NO:294 (peptide)
peptide: Ac-GDSRVCWEDSWGGEVCFRYDPGGGK-NH2
modifications: disulfide 6-16 (inferred); also: fluorescein on C-terminal Lys in FP only
- VEGF-induced KDR phosphorylation, HUVEC immunoblot [11]: ≥ 50 % inhibition at 10 µM
- % inhibition of 125I-labeled VEGF binding [2]: 96.3%
- % inhibition of 125I-labeled VEGF binding [3]: 52.3%

B7: SEQ ID NO:269 (peptide)
peptide: Ac-AGWIECYHPDGICYHFGTGGGK-NH2
modifications: disulfide 6-13 (inferred); also: fluorescein on C-terminal Lys in FP only
- VEGF-induced KDR phosphorylation, HUVEC immunoblot [11]: ≥ 50 % inhibition at 10 µM

B8: SEQ ID NO:307 (peptide)
peptide: Ac-AQGDYVYWEIIELTGATDHTPPGGK-NH2
modifications: also: fluorescein on C-terminal Lys in FP only
- VEGF-induced KDR phosphorylation, HUVEC immunoblot [11]: ≥ 50 % inhibition at 10 µM

B9: 125I-labeled D5 (peptide)
peptide 1: Ac-VCWEDSWGGEVCFRYDPGGGK-NH2
peptide 2: Ac-AGPTWCEDDWYYCWLFGTGGGK-NH2
modifications: disulfide I:2-I:12, II:6-II:13 (inferred); not fully specified (bridges); also: dimer joined by JJ-glutaryl-Lys linker, 125I Bolton-Hunter label, site not given here
notes: also called dimer 5
- binding result [12]: binds

B11: SEQ ID NO:305 (peptide)
peptide: Ac-AQEPEGYAYWEVITLYHEEDGDGGK-NH2
modifications: also: fluorescein on C-terminal Lys in FP only
- VEGF-induced KDR phosphorylation, HUVEC immunoblot [11]: ≥ 50 % inhibition at 10 µM

B12: SEQ ID NO:306 (peptide)
peptide: Ac-AQAFPRFGGDDYWIQQYLRYTDGGK-NH2
modifications: also: fluorescein on C-terminal Lys in FP only
- VEGF-induced KDR phosphorylation, HUVEC immunoblot [11]: ≥ 50 % inhibition at 10 µM

B14: SEQ ID NO:267 (peptide)
peptide: Ac-AGWLECYAEFGHCYNFGTGGGK-NH2
modifications: disulfide 6-13 (inferred); also: fluorescein on C-terminal Lys in FP only
- VEGF-induced KDR phosphorylation, HUVEC immunoblot [11]: ≥ 50 % inhibition at 10 µM
